Data: the supplement of paper PMC7877785
± gives the uncertainty stated by the source.

Test: self-splicing fitness, log relative to wild type (ln ratio); higher = more splicing; Tetrahymena group I intron in knt gene, E. coli kanamycin selection, DiMSum; sequences stand for … in CUCUCU…GGAGGGAAAAGUUAUCAGGCAUGCACCUGGUAGCUAGUCUUUAAACCAAUAGAUUGCAUCGGUUUAAAAGGCAAGACCGUCAAAUUGCGGGAAAGGGGUCAACAGCCGUUCAGUACCAAGUCUCAGGGGAAACUUUGAGAUGGCCUUGCAAAGGGUAUGGUAAUAAGCUGACGGACAUGGUCCUAACCACGCAGCCAAGUCCUAAGUCAACAGAUCUUCUGUUGAUAUGGAUGCAGUUCACAGACUAAAUGUCGGUCGGGGAAGAUGUAUUCUUCUCAUAAGAUAUAGUCGGACCUCUCCUUAAUGGGAGCUAGCGGAUGAAGUGAUGCAACACUGGAGCCGCUGGGAACUAAUUUGUAUGCGAAAGUAUAUUGAUUAGUUUUGGAGUACUCGUGGUCG
In short: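 Fitness was computed with DiMSum as the error-weighted combination of replicate fold changes, kanamycin versus none, each normalised to wild type. The library randomised all eight intron nucleotides of the P1ex region, with the intron placed in the knt kanamycin-resistance gene on pET-22b(+) in E. coli BL21(DE3). Six replicate transformations were grown overnight at 37°C or 30°C on LB agar with or without 25 μg/mL kanamycin, plus 100 μg/mL carbenicillin, 50 μM IPTG and 0.2% rhamnose. Pooled colonies were amplicon-sequenced on an Illumina HiSeq 2500.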

## ACAAAGCAAUAUUACGACCG
30 °C
  self-splicing fitness (ln): -0.343 ± 0.1
37 °C
  self-splicing fitness (ln): 0.578 ± 0.13

## ACCAAGCAAUAUUACGAUGU
30 °C
  self-splicing fitness (ln): -1.7 ± 0.057
37 °C
  self-splicing fitness (ln): -1.03 ± 0.073

## AUCCAGCAAUAUUACGGCUU
30 °C
  self-splicing fitness (ln): -0.0325 ± 0.076
37 °C
  self-splicing fitness (ln): 0.438 ± 0.1

## ACAUAGCAAUAUUACGUGGG
30 °C
  self-splicing fitness (ln): -3.52 ± 0.12
37 °C
  self-splicing fitness (ln): -2.75 ± 0.12

## UACUAGCAAUAUUACGAUCA
30 °C
  self-splicing fitness (ln): -1.21 ± 0.07
37 °C
  self-splicing fitness (ln): -0.774 ± 0.063

## AAGUAGCAAUAUUACGUUGC
30 °C
  self-splicing fitness (ln): -3.66 ± 0.14
37 °C
  self-splicing fitness (ln): -3.19 ± 0.21

## AACCAGCAAUAUUACGAUCG
30 °C
  self-splicing fitness (ln): -0.866 ± 0.084
37 °C
  self-splicing fitness (ln): -0.752 ± 0.099

## GCUGAGCAAUAUUACGGUGU
30 °C
  self-splicing fitness (ln): -2.14 ± 0.077
37 °C
  self-splicing fitness (ln): -1.8 ± 0.091

## CUUCAGCAAUAUUACGCUCG
30 °C
  self-splicing fitness (ln): -2.42 ± 0.15
37 °C
  self-splicing fitness (ln): -0.933 ± 0.26

## UCUAAGCAAUAUUACGCCAU
30 °C
  self-splicing fitness (ln): -3.76 ± 0.46
37 °C
  self-splicing fitness (ln): -2.37 ± 0.42

## GAACAGCAAUAUUACGCGGC
30 °C
  self-splicing fitness (ln): -4 ± 0.43
37 °C
  self-splicing fitness (ln): -1.6 ± 0.23

## AUACAGCAAUAUUACGUCGG
30 °C
  self-splicing fitness (ln): -2.35 ± 0.13
37 °C
  self-splicing fitness (ln): -2.13 ± 0.17

## CGAAAGCAAUAUUACGAGAA
30 °C
  self-splicing fitness (ln): -2.51 ± 0.49

## CUAAAGCAAUAUUACGGGAC
30 °C
  self-splicing fitness (ln): -2.11 ± 0.13
37 °C
  self-splicing fitness (ln): -0.677 ± 0.13

## CAAGAGCAAUAUUACGGUAC
30 °C
  self-splicing fitness (ln): -3.2 ± 0.26
37 °C
  self-splicing fitness (ln): -2.37 ± 0.21

## AAGAAGCAAUAUUACGGCAG
30 °C
  self-splicing fitness (ln): -1.35 ± 0.099
37 °C
  self-splicing fitness (ln): -0.774 ± 0.12

## CAUAAGCAAUAUUACGACAU
30 °C
  self-splicing fitness (ln): -3.64 ± 0.024
37 °C
  self-splicing fitness (ln): -2.45 ± 0.037

## CACUAGCAAUAUUACGUGAA
30 °C
  self-splicing fitness (ln): -3.83 ± 0.15
37 °C
  self-splicing fitness (ln): -3.05 ± 0.18

## UCUAAGCAAUAUUACGCGAU
30 °C
  self-splicing fitness (ln): -4.31 ± 0.33
37 °C
  self-splicing fitness (ln): -3.83 ± 0.36

## CAGUAGCAAUAUUACGCCAA
30 °C
  self-splicing fitness (ln): -2.85 ± 0.36
37 °C
  self-splicing fitness (ln): -2.91 ± 0.31

## CGCUAGCAAUAUUACGCUAA
30 °C
  self-splicing fitness (ln): -1.93 ± 0.22
37 °C
  self-splicing fitness (ln): -1.53 ± 0.25

## GUGAAGCAAUAUUACGCACC
37 °C
  self-splicing fitness (ln): -1.92 ± 0.34

## GGUCAGCAAUAUUACGAUCC
37 °C
  self-splicing fitness (ln): -0.912 ± 0.18

## UCUGAGCAAUAUUACGACGA
30 °C
  self-splicing fitness (ln): -0.584 ± 0.11
37 °C
  self-splicing fitness (ln): 0.197 ± 0.13

## GCCAAGCAAUAUUACGAUUG
30 °C
  self-splicing fitness (ln): -4.04 ± 0.4
37 °C
  self-splicing fitness (ln): -2.12 ± 0.34

## UCCUAGCAAUAUUACGGGGU
30 °C
  self-splicing fitness (ln): -4.13 ± 0.29
37 °C
  self-splicing fitness (ln): -2.65 ± 0.2

## UUACAGCAAUAUUACGAGUC
30 °C
  self-splicing fitness (ln): -4.54 ± 0.3
37 °C
  self-splicing fitness (ln): -2.84 ± 0.26

## CGUGAGCAAUAUUACGUUUU
30 °C
  self-splicing fitness (ln): -3.42 ± 0.16
37 °C
  self-splicing fitness (ln): -3.73 ± 0.37

## UUUAAGCAAUAUUACGUAUU
30 °C
  self-splicing fitness (ln): -2.16 ± 0.18
37 °C
  self-splicing fitness (ln): -0.782 ± 0.21

## UUGAAGCAAUAUUACGCGAG
30 °C
  self-splicing fitness (ln): -0.254 ± 0.086
37 °C
  self-splicing fitness (ln): 0.721 ± 0.12

## AUUAAGCAAUAUUACGAGGG
37 °C
  self-splicing fitness (ln): -2.96 ± 0.36

## ACUCAGCAAUAUUACGCUAC
30 °C
  self-splicing fitness (ln): -3.42 ± 0.27
37 °C
  self-splicing fitness (ln): -2.63 ± 0.23

## GCUAAGCAAUAUUACGAUUG
30 °C
  self-splicing fitness (ln): -2.78 ± 0.11
37 °C
  self-splicing fitness (ln): -1.17 ± 0.12

## AGAGAGCAAUAUUACGAUGA
30 °C
  self-splicing fitness (ln): -3.27 ± 0.24
37 °C
  self-splicing fitness (ln): -2.37 ± 0.23

## UACUAGCAAUAUUACGCAAG
30 °C
  self-splicing fitness (ln): -2.98 ± 0.33
37 °C
  self-splicing fitness (ln): -1.72 ± 0.24

## UAGAAGCAAUAUUACGUCAU
30 °C
  self-splicing fitness (ln): -2.84 ± 0.2
37 °C
  self-splicing fitness (ln): -1.99 ± 0.15

## AACUAGCAAUAUUACGGGAC
30 °C
  self-splicing fitness (ln): -3.22 ± 0.3
37 °C
  self-splicing fitness (ln): -1.08 ± 0.17

## CCAGAGCAAUAUUACGCCAU
30 °C
  self-splicing fitness (ln): -2.03 ± 0.19
37 °C
  self-splicing fitness (ln): -2.75 ± 0.27

## GACUAGCAAUAUUACGUGUC
30 °C
  self-splicing fitness (ln): -2.59 ± 0.42
